Test results published in PMC5157838 (Analytical chemistry, 2015).
Values joined by “and” are separate entries in the source; they are usually repeats but may differ in a detail not shown here. Identical values can stand only once.

Target: the molecule itself
Experiment: native MS

B1: Glutamate dehydrogenase, purified from bovine liver (enzyme)
chain: not shown
  stoichiometry N: 6 and 12
